Source: patent publication US20140274782A1, “AFFINITY REAGENTS AND METHODS FOR DETECTION, PURIFICATION, AND PROTEOMIC ANALYSIS OF METHYLATED PROTEINS” (The Board of Trustees of the Leland Stanford Junior …, priority 2013, published 2014)

T1: G9a and GLP (Homo sapiens, UniProt Q96KQ7+Q9H9B1)
T1 sequence (Q96KQ7 2-1210 limits assumed): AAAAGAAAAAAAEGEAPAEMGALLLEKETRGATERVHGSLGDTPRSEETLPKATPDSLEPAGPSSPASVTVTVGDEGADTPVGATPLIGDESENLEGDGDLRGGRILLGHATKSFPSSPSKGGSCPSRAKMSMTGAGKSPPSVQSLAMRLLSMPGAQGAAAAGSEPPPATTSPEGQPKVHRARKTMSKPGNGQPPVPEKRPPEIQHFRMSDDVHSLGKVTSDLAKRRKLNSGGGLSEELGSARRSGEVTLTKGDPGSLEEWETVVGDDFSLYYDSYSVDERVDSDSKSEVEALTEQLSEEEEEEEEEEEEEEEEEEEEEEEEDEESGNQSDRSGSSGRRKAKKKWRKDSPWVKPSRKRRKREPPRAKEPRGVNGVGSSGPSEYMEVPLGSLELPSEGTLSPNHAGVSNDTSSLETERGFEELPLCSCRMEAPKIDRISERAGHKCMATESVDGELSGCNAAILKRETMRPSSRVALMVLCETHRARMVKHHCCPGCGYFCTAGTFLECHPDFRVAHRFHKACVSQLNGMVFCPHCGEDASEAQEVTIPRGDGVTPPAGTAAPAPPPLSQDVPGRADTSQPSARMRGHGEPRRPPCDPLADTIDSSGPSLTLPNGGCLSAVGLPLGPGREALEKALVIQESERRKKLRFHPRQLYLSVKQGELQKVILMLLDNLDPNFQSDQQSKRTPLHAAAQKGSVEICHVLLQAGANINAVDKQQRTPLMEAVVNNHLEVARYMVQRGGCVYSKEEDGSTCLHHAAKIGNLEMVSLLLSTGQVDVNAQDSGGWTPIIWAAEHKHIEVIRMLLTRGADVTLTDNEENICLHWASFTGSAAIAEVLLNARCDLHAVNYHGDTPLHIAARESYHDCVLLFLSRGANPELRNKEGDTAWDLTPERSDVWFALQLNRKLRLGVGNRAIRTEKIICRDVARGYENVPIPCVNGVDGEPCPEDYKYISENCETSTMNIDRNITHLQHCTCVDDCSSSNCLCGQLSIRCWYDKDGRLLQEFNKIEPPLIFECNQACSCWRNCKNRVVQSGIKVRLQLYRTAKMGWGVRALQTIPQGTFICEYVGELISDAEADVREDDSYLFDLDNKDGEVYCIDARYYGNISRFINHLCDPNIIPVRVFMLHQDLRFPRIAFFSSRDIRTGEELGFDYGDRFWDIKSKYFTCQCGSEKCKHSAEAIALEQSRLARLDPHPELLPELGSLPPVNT
T1 sequence (Q9H9B1 2-1298 limits assumed): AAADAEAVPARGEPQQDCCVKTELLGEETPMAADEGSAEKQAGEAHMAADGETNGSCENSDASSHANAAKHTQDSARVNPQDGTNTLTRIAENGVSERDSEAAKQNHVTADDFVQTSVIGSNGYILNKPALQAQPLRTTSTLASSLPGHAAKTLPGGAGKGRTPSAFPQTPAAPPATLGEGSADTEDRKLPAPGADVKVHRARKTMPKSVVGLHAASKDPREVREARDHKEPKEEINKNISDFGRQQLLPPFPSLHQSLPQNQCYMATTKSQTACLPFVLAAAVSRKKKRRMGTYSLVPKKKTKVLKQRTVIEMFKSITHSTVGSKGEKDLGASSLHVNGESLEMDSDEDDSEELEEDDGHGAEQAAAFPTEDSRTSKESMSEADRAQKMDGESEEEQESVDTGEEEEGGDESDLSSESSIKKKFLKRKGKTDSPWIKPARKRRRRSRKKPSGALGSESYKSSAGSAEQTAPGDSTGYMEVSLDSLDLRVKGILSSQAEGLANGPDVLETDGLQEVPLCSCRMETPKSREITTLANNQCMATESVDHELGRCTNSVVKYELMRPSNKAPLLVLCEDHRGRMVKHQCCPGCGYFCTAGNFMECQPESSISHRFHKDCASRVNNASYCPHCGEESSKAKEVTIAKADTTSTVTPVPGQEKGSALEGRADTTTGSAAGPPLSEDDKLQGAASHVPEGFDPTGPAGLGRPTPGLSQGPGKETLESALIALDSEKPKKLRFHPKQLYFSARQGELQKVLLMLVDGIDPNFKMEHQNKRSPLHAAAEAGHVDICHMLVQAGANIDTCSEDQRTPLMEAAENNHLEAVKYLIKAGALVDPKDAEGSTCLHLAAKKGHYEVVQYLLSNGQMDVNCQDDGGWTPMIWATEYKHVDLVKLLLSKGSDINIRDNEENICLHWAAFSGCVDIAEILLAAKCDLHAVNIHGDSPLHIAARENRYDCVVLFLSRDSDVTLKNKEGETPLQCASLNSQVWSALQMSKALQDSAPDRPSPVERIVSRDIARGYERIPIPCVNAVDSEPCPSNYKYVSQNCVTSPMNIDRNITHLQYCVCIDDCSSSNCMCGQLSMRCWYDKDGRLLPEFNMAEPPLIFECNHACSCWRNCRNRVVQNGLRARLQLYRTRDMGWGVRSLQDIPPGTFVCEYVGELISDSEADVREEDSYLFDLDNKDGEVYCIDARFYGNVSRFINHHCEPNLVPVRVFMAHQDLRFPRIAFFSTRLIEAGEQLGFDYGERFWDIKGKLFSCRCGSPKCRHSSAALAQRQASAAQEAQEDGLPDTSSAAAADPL


Key:
3×MBT domain of L3MBTL1 = test: Triple SILAC pull-down, 3xMBT/3xMBTD355N ratio (cytoplasmic, nuclear and chromatin fractions of 293T cells); type: binding, human; conditions: SILAC ratio, pull-down 3xMBT vs 3xMBTD355N; for 3xMBT/D355N UNC Heavy: experiment with UNC0638 in heavy SILAC media; for 3xMBT/D355N UNC Light: experiment with UNC0638 in light SILAC media;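 for all read-outs here: proteins quantified with MaxQuant, requiring at least two unique peptides and quantification in both label directions, normalized to the mean of proteins from a digested loading control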
G9a and GLP = molecular target: T1, G9a and GLP; test: Triple SILAC pull-down after UNC0638 treatment of 293T cells, DMSO/UNC0638 ratio of protein captured by 3×MBT; type: cell-based; set-up: cells were treated for 24 hours with UNC0638 at 2.5 μM or DMSO vehicle control; endogenous in cells; host or cells: HEK 293T; conditions: for Relative to UNC0638 UNC Heavy / Relative to UNC0638 UNC Light: SILAC ratio DMSO/UNC0638 of protein pulled down with 3xMBT; for Relative to UNC0638 UNC Heavy: UNC0638 in heavy SILAC media; for Relative to UNC0638 UNC Light: UNC0638 in light SILAC media; for Relative to UNC0638 Average: average of UNC Light and UNC Heavy experiments;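 for all read-outs here: mass spectrometry (Q-Exactive) SILAC quantitation, DMSO/UNC0638 ratio computed after subtracting 3×MBTD355N mutant pull-down background, only proteins with at least twofold 3×MBT over mutant signal considered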

Molecule | 3xMBT/D355N UNC Heavy (3×MBT domain of L3MBTL1) [log base 2] | 3xMBT/D355N UNC Light (3×MBT domain of L3MBTL1) [log base 2] | Relative to UNC0638 UNC Heavy (G9a and GLP) [log base 2] | Relative to UNC0638 UNC Light (G9a and GLP) [log base 2] | Relative to UNC0638 Average (G9a and GLP) [log base 2]
KIF2A (protein, UniProt O00139 1-706, looked up) Kinesin-like protein KIF2A: MATANFGKIQIGIYVEIKRSDGRIHQAMVTSLNEDNESVTVEWIENGDTKGKEIDLESIFSLNPDLVPDEEIEPSPETPPPPASSAKVNKIVKNRRTVASIKNDPPSRDNRVVGSARARPSQFPEQSSSAQQNGSVSDISPVQAAKKEFGPPSRRKSNCVKEVEKLQEKREKRRLQQQELREKRAQDVDATNPNYEIMCMIRDFRGSLDYRPLTTADPIDEHRICVCVRKRPLNKKETQMKDLDVITIPSKDVVMVHEPKQKVDLTRYLENQTFRFDYAFDDSAPNEMVYRFTARPLVETIFERGMATCFAYGQTGSGKTHTMGGDFSGKNQDCSKGIYALAARDVFLMLKKPNYKKLELQVYATFFEIYSGKVFDLLNRKTKLRVLEDGKQQVQVVGLQEREVKCVEDVLKLIDIGNSCRTSGQTSANAHSSRSHAVFQIILRRKGKLHGKFSLIDLAGNERGADTSSADRQTRLEGAEINKSLLALKECIRALGRNKPHTPFRASKLTQVLRDSFIGENSRTCMIATISPGMASCENTLNTLRYANRVKELTVDPTAAGDVRPIMHHPPNQIDDLETQWGVGSSPQRDDLKLLCEQNEEEVSPQLFTFHEAVSQMVEMEEQVVEDHRAVFQESIRWLEDEKALLEMTEEVDYDVDSYATQLEAILEQKIDILTELRDKVKSFRAALQEEEQASKQINPKRPRAL | 2.05 | 2.33 | 0.23 | 0.15 | 0.19
DHX15 (protein, UniProt O43143 1-795, looked up) ATP-dependent RNA helicase …: MSKRHRLDLGEDYPSGKKRAGTDGKDRDRDRDREDRSKDRDRERDRGDREREREKEKEKELRASTNAMLISAGLPPLKASHSAHSTHSAHSTHSTHSAHSTHAGHAGHTSLPQCINPFTNLPHTPRYYDILKKRLQLPVWEYKDRFTDILVRHQSFVLVGETGSGKTTQIPQWCVEYMRSLPGPKRGVACTQPRRVAAMSVAQRVADEMDVMLGQEVGYSIRFEDCSSAKTILKYMTDGMLLREAMNDPLLERYGVIILDEAHERTLATDILMGVLKEVVRQRSDLKVIVMSATLDAGKFQIYFDNCPLLTIPGRTHPVEIFYTPEPERDYLEAAIRTVIQIHMCEEEEGDLLLFLTGQEEIDEACKRIKREVDDLGPEVGDIKIIPLYSTLPPQQQQRIFEPPPPKKQNGAIGRKVVVSTNIAETSLTIDGVVFVIDPGFAKQKVYNPRIRVESLLVTAISKASAQQRAGRAGRTRPGKCFRLYTEKAYKTEMQDNTYPEILRSNLGSVVLQLKKLGIDDLVHFDFMDPPAPETLMRALELLNYLAALNDDGDLTELGSMMAEFPLDPQLAKMVIASCDYNCSNEVLSITAMLSVPQCFVRPTEAKKAADEAKMRFAHIDGDHLTLLNVYHAFKQNHESVQWCYDNFINYRSLMSADNVRQQLSRIMDRFNLPRRSTDFTSRDYYINIRKALVTGYFMQVAHLERTGHYLTVKDNQVVQLHPSTVLDHKPEWVLYNEFVLTTKNYIRTCTDIKPEWLVKIAPQYYDMSNFPQCEAKRQLDRIIAKLQSKEYSQY | 2.98 | 2.54 | 0.13 | 0.27 | 0.20
DDX3X (protein, UniProt O00571 2-662, looked up) ATP-dependent RNA helicase …: SHVAVENALGLDQQFAGLDLNSSDNQSGGSTASKGRYIPPHLRNREATKGFYDKDSSGWSSSKDKDAYSSFGSRSDSRGKSSFFSDRGSGSRGRFDDRGRSDYDGIGSRGDRSGFGKFERGGNSRWCDKSDEDDWSKPLPPSERLEQELFSGGNTGINFEKYDDIPVEATGNNCPPHIESFSDVEMGEIIMGNIELTRYTRPTPVQKHAIPIIKEKRDLMACAQTGSGKTAAFLLPILSQIYSDGPGEALRAMKENGRYGRRKQYPISLVLAPTRELAVQIYEEARKFSYRSRVRPCVVYGGADIGQQIRDLERGCHLLVATPGRLVDMMERGKIGLDFCKYLVLDEADRMLDMGFEPQIRRIVEQDTMPPKGVRHTMMFSATFPKEIQMLARDFLDEYIFLAVGRVGSTSENITQKVVWVEESDKRSFLLDLLNATGKDSLTLVFVETKKGADSLEDFLYHEGYACTSIHGDRSQRDREEALHQFRSGKSPILVATAVAARGLDISNVKHVINFDLPSDIEEYVHRIGRTGRVGNLGLATSFFNERNINITKDLLDLLVEAKQEVPSWLENMAYEHHYKGSSRGRSKSSRFSGGFGARDYRQSSGASSSSFSSSRASSSRSGGGGHGSSRGFGGGGYGGFYNSDGYGGNYNSQGVDWWGN | 2.64 | 2.58 | 0.25 | 0.14 | 0.20
HNRPDL (protein, UniProt O14979 1-420, looked up) Heterogeneous nuclear …: MEVPPRLSHVPPPLFPSAPATLASRSLSHWRPRPPRQLAPLLPSLAPSSARQGARRAQRHVTAQQPSRLAGGAAIKGGRRRRPDLFRRHFKSSSIQRSAAAAAATRTARQHPPADSSVTMEDMNEYSNIEEFAEGSKINASKNQQDDGKMFIGGLSWDTSKKDLTEYLSRFGEVVDCTIKTDPVTGRSRGFGFVLFKDAASVDKVLELKEHKLDGKLIDPKRAKALKGKEPPKKVFVGGLSPDTSEEQIKEYFGAFGEIENIELPMDTKTNERRGFCFITYTDEEPVKKLLESRYHQIGSGKCEIKVAQPKEVYRQQQQQQKGGRGAAAGGRGGTRGRGRGQGQNWNQGFNNYYDQGYGNYNSAYGGDQNYSGYGGYDYTGYNYGNYGYGQGYADYSGQQSTYGKASRGGGNHQNNYQPY | 2.81 | 3.02 | 0.16 | 0.24 | 0.20
